Data reported in publication PMC12827327.

Experiments:
[1] = biological target: actin filament (F-actin) of chicken skeletal α-actin, pointed end (chicken) (UniProt P68139)
[2] = biological target: actin filament (F-actin) of chicken skeletal α-actin, pointed end (chicken) (UniProt P68139); remark: listed apart in the source
[3] = biological target: actin filament (F-actin) of chicken skeletal α-actin, pointed end (chicken) (UniProt P68139); remark: listed apart in the source
[4] = biological target: actin filament (F-actin) of chicken skeletal α-actin, pointed end (chicken) (UniProt P68139); assay: pyrene-actin pointed end elongation assay; apparent KD from inhibition of pointed end elongation; 0.8 µM F-actin seeds with 8 nM capping protein incubated with the titrated protein, 2 µM G-actin (8% pyrene-labeled) added; 10 mM HEPES pH 7.4, 50 mM KCl, 1 mM MgCl2, 1 mM EGTA; hyperbolic fit of normalized rates
[5] = biological target: actin filament (F-actin) of chicken skeletal α-actin, pointed end (chicken) (UniProt P68139); assay: pyrene-actin dilution-induced pointed end depolymerization assay; apparent KD from inhibition of pointed end depolymerization; 10 µM CP-capped pyrene F-actin (20% labeled) incubated with the protein 15 min on ice, diluted to 0.5 µM; hyperbolic fit of normalized rate constants

human SH3BGRL-3, sequence (Q9H299 whole entry): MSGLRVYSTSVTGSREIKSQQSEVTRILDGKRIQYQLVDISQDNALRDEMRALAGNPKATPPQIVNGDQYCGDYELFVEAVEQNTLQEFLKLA
human SH3BGRL, sequence (O75368 whole entry): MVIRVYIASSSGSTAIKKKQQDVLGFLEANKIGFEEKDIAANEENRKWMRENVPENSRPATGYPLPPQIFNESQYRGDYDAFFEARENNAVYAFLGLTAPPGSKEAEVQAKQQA
human tropomodulin-3, sequence (Q9NYL9 whole entry): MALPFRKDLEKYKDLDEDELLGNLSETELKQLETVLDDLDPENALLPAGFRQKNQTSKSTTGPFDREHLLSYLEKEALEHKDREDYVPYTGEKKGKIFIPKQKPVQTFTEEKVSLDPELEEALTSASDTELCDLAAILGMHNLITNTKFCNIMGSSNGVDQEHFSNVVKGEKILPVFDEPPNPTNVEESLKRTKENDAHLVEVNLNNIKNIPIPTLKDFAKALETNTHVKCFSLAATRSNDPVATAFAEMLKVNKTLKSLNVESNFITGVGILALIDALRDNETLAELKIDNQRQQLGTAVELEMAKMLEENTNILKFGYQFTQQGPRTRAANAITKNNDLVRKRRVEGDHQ

apparent rate of filament nucleation knuc, TIRFM, 1 µM ATTO-488 α-actin, 1-5 µM SH3BGRL (actin only: 5.1 × 10^-6) [1] [µm^-2 s^-1]	pyrene-actin bulk polymerization from 2 µM α-actin (5% pyrene-labeled), increasing SH3BGRL: increase of the net polymerization rate [2] [fold]	concentration required for half-maximal inhibition of pointed end depolymerization (K50%), CP-capped pyrene F-actin [3] [µM]	Kd [4] [nM]	apparent rate of filament nucleation knuc, TIRFM, 1 µM ATTO-488 α-actin, 0.5-5 µM SH3BGRL-3 (actin only: 5.1 × 10^-6) [1] [µm^-2 s^-1]	pyrene-actin bulk polymerization from 2 µM α-actin (5% pyrene-labeled), increasing SH3BGRL-3: increase of the net polymerization rate [2] [fold]	Kd [5] [nM]	Substance
2.22e-05	< 3	7.6	85	–	–	–	human SH3BGRL (from UniProt O75368 1-114) (natural protein)
–	–	7.7	31	3.42e-05	< 3	–	human SH3BGRL-3 (from UniProt Q9H299 1-93) (natural protein)
–	–	–	180	–	–	130	human tropomodulin-3 (from UniProt Q9NYL9 1-352) (natural protein)
